The values below come from PMC9253516.

The target in experiment [1] is T1, Aurora B (endogenous), Q96GD4.
T1 chain: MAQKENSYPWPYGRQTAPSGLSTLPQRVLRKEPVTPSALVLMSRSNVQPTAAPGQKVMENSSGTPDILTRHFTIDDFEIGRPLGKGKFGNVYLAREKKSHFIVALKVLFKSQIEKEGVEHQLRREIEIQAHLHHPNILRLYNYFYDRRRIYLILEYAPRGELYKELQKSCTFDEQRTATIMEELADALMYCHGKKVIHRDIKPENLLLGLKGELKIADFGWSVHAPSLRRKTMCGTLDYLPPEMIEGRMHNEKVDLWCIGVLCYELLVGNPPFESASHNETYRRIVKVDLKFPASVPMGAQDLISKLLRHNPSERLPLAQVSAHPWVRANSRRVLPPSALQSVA
Nature of the experiment: LacO-LacI tethering assay, immunofluorescence in U-2 OS-LacO Haspin CM cells. Particulars: chain shown with the change, red bar = mean, read off a plot.

Experiment [2] addresses T2, Borealin (endogenous), Q53HL2.
T2 chain: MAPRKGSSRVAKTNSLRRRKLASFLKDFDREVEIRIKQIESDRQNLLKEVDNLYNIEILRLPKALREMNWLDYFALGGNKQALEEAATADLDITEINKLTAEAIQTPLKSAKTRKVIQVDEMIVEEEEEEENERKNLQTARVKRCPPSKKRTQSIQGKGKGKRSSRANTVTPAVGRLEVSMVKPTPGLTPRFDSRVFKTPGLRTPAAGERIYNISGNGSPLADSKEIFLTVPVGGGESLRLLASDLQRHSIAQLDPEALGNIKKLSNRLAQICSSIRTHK
The description is as above. Particulars: chain shown with the change, n = 21 (mutant), n = 22 (parent), red bar = mean, read off a plot.

B1: Sgo1_(130–280)-LacI-GFP, Q5FBB7 V188A; S189A; V190A; R191A (protein)
chain: RNLFVKDLPQIPLEETELPGQGESFQIEDQIPTIPQDTLGVDFDSGEAKSTDNVLPRTAAAASSLKKHCNSICQFDSLDDFETSHLAGKSFEFERVGFLDPLVNMHIPENVQHNACQWSKDQVNLSPKLIQPGTFTKTKEDILESKSEQTK
As to B1, the response in experiment [1] (n = 22 (mutant), n = 20 (parent), parent: est. 0.85) worked out at 0.1 a.u; in experiment [2] (parent: est. 1.2), 0.18 a.u.

B2: Sgo1_(159–240)-LacI-GFP, Q5FBB7 V188A; S189A; V190A; R191A (protein)
chain: QIPTIPQDTLGVDFDSGEAKSTDNVLPRTAAAASSLKKHCNSICQFDSLDDFETSHLAGKSFEFERVGFLDPLVNMHIPENV
For B2, the response in experiment [1] (n = 23 (mutant), n = 10 (parent), parent: est. 1.2) came out at 0.15 a.u; in experiment [2] (parent: est. 1.4) it was 0.25 a.u.
